Reference: US10562947B2, “Compositions and methods for preventing or treating diseases, conditions or processes characterized by aberrant fibroblast proliferation and extracellular matrix deposition” (MOERAE MATRIX, INC., priority 2011, dated 2020)

How the values were obtained:
Test in all cases: Kinase Profiling Assay
Format in all cases: biochemical
Settings in all cases: 100 μM peptide
[1] = biological target: PDGFRα(h) (Homo sapiens, UniProt P16234)
Outline: (§1)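 MK2 inhibitory peptides were screened for specificity across a commercial panel of 266 human kinases, and each kinase activity measurement was run in duplicate.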

[2] = biological target: BTK(R28H)(h) (Homo sapiens, UniProt Q06187, R28H)
Sequence of BTK(R28H)(h) (Q06187 whole entry R28H): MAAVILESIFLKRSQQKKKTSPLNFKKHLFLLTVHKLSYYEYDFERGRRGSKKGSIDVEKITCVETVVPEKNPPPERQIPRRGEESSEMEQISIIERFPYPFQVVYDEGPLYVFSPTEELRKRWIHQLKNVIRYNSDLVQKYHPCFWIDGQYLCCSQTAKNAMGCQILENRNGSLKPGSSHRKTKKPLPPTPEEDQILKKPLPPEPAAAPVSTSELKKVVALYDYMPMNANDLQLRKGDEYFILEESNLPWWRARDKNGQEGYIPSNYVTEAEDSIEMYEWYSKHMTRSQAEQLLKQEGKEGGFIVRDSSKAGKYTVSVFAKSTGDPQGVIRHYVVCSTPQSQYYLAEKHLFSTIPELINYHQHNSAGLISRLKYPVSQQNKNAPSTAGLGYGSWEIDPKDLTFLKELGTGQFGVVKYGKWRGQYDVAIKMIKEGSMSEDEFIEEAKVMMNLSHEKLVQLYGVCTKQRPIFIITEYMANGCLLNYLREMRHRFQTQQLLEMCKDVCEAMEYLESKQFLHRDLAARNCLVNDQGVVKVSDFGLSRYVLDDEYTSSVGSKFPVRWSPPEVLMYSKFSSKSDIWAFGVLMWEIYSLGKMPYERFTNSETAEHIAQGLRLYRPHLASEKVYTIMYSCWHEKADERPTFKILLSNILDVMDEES
Outline: as §1

[3] = biological target: T1, EphB4(h) (Homo sapiens, UniProt P54760)
T1 sequence (P54760 16-987): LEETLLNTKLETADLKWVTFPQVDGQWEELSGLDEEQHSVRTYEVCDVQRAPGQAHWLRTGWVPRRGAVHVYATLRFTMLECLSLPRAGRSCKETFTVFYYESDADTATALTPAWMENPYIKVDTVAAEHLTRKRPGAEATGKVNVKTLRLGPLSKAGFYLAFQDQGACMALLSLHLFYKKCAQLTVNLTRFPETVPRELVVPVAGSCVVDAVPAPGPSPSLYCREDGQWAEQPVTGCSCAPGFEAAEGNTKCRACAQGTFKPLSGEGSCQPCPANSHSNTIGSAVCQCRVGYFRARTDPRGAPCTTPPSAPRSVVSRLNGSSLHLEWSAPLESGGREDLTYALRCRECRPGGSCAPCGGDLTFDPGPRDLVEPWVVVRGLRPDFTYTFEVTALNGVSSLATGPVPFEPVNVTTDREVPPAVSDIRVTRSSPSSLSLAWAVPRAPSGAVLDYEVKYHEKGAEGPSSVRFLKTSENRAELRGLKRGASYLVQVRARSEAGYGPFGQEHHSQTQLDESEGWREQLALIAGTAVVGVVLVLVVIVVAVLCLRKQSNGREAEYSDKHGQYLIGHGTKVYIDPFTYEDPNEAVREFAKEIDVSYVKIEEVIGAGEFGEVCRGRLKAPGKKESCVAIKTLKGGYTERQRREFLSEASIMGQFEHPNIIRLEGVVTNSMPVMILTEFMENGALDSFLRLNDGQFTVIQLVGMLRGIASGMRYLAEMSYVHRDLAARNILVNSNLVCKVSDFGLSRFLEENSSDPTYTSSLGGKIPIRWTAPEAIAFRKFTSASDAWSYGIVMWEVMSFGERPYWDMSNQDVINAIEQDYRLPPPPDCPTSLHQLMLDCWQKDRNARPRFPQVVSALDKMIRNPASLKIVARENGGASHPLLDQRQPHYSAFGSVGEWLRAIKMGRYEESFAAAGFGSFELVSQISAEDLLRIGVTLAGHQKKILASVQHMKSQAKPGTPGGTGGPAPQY
Outline: as §1

[4] = biological target: PAK5(h) (Homo sapiens, UniProt Q9P286)
Sequence of PAK5(h) (Q9P286 whole entry): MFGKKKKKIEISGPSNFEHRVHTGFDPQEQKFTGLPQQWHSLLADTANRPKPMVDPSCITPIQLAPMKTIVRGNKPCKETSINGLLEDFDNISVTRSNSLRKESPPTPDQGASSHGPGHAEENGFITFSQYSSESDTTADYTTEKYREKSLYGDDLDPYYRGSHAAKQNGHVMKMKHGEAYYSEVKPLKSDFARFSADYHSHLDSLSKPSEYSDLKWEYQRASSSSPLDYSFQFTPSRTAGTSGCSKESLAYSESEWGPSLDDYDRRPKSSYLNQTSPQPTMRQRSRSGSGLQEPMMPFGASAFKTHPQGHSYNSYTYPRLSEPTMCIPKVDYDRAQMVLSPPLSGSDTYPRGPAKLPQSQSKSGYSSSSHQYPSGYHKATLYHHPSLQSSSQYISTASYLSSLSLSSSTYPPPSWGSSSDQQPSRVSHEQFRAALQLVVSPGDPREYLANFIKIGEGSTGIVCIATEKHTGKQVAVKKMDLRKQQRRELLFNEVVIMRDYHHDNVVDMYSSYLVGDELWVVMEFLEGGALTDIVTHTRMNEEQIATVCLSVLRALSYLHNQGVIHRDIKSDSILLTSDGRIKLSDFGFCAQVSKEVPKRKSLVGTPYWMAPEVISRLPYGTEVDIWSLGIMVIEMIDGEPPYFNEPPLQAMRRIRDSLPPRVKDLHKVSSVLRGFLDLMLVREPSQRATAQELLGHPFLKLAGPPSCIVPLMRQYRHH
Outline: as §1

[5] = biological target: T2, PrKX(h) (Homo sapiens, UniProt P51817)
T2 construct: purchased Millipore (IC50 Profiler Express service)
T2 sequence (P51817 1-358): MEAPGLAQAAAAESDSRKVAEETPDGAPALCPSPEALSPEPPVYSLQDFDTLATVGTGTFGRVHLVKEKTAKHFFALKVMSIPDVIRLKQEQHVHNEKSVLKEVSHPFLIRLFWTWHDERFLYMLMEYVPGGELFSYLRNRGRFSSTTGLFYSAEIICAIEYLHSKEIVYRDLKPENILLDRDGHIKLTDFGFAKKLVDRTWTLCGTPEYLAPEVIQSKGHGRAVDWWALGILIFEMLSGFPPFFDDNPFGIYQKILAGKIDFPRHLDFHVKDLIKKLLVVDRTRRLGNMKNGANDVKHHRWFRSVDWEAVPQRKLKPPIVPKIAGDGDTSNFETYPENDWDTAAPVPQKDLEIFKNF
Outline: as §1

[6] = biological target: MSK2(h) (Homo sapiens, UniProt O75676)
Sequence of MSK2(h) (O75676 whole entry): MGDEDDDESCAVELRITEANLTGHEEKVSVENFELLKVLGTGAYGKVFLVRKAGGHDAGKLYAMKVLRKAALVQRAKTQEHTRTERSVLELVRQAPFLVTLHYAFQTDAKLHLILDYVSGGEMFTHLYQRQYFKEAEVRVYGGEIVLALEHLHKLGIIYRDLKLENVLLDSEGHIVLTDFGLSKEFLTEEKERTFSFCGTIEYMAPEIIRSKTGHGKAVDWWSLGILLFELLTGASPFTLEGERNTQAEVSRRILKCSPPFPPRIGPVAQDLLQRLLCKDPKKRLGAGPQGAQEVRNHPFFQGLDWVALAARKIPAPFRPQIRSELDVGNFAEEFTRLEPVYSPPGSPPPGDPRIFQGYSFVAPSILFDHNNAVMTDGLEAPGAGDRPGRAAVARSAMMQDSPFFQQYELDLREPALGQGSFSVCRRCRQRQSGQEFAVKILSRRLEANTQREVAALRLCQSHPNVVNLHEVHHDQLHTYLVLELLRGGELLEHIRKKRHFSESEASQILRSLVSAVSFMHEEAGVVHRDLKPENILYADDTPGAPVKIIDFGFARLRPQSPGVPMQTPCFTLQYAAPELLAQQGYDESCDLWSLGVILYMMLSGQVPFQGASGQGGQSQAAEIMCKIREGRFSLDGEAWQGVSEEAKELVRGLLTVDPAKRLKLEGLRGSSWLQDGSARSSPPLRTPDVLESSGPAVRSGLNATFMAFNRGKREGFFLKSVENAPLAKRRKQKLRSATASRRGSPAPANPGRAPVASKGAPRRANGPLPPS
Outline: as §1

[7] = biological target: ALK(h) (Homo sapiens, UniProt Q9UM73)
Sequence of ALK(h) (Q9UM73 19-1620): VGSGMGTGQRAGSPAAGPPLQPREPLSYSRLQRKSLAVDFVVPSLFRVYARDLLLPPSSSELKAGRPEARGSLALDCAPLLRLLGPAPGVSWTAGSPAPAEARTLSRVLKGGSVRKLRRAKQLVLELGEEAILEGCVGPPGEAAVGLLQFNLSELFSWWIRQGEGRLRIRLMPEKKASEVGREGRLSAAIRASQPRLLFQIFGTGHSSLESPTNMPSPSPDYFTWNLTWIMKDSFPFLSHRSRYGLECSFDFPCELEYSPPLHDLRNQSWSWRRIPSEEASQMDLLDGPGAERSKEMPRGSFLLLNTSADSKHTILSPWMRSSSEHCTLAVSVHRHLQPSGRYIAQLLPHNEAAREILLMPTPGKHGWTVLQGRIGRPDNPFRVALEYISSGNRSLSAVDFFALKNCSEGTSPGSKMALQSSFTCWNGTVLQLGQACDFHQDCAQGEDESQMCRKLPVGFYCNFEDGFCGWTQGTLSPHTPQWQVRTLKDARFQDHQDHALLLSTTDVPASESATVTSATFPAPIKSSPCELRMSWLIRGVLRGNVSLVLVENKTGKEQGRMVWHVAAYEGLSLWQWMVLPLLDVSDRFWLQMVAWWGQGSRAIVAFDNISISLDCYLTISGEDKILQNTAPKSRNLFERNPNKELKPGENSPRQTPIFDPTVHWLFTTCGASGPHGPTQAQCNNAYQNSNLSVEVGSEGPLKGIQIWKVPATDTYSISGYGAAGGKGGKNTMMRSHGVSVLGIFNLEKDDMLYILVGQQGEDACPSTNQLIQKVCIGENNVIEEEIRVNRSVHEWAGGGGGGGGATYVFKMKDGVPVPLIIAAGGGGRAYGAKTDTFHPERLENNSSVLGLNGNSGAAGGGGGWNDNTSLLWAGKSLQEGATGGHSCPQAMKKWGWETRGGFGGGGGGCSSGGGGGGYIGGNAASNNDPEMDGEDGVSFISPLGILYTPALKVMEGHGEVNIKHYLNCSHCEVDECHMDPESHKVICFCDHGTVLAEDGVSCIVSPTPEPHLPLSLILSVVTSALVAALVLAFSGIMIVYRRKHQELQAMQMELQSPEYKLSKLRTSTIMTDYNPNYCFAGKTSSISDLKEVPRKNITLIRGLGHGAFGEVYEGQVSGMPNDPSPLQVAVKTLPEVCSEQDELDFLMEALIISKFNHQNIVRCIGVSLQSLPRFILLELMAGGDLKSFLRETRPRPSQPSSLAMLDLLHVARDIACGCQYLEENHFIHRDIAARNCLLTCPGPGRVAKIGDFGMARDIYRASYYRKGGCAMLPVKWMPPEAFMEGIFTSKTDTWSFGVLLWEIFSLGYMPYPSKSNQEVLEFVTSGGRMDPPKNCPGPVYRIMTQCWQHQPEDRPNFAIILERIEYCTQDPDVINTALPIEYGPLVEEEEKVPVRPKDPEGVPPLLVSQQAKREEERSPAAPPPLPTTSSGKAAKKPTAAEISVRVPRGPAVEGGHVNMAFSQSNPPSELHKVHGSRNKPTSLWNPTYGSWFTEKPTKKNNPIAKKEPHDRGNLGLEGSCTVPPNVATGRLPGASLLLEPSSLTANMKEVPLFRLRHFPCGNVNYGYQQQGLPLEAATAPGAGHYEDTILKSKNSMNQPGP
Outline: as §1

[8] = biological target: T3, SGK(h) (Homo sapiens, UniProt O00141)
T3 sequence (O00141 1-431): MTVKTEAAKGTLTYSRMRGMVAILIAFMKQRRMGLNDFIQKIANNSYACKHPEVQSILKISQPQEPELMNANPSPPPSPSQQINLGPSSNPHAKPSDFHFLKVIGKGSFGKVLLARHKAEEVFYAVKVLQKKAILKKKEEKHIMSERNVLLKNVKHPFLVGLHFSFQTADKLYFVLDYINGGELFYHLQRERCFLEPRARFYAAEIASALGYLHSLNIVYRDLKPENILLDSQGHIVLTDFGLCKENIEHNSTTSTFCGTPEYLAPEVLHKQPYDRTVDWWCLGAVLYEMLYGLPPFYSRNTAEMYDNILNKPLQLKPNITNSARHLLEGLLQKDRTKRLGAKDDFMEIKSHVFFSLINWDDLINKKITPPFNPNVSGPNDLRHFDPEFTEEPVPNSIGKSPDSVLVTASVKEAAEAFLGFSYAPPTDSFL
Outline: as §1

[9] = biological target: T4, ULK3(h) (Homo sapiens, UniProt Q6PHR2)
T4 sequence (Q6PHR2 1-472): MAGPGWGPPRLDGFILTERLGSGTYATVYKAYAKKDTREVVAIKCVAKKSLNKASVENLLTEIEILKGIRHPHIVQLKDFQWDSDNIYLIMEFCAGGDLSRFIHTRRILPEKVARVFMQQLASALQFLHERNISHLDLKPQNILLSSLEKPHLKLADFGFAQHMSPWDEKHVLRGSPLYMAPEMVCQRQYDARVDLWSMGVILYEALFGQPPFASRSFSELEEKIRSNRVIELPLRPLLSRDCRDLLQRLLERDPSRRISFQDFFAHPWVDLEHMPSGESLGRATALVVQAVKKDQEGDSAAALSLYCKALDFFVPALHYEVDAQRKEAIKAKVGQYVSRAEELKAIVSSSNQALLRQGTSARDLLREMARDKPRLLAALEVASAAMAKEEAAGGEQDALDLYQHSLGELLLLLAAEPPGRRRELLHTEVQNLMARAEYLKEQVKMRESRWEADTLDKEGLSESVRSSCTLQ
Outline: as §1

[10] = biological target: Fms(Y969C)(h) (Homo sapiens, UniProt P07333, Y969C)
Outline: as §1

Sequence of PDGFRα(h) (P16234 24-1089): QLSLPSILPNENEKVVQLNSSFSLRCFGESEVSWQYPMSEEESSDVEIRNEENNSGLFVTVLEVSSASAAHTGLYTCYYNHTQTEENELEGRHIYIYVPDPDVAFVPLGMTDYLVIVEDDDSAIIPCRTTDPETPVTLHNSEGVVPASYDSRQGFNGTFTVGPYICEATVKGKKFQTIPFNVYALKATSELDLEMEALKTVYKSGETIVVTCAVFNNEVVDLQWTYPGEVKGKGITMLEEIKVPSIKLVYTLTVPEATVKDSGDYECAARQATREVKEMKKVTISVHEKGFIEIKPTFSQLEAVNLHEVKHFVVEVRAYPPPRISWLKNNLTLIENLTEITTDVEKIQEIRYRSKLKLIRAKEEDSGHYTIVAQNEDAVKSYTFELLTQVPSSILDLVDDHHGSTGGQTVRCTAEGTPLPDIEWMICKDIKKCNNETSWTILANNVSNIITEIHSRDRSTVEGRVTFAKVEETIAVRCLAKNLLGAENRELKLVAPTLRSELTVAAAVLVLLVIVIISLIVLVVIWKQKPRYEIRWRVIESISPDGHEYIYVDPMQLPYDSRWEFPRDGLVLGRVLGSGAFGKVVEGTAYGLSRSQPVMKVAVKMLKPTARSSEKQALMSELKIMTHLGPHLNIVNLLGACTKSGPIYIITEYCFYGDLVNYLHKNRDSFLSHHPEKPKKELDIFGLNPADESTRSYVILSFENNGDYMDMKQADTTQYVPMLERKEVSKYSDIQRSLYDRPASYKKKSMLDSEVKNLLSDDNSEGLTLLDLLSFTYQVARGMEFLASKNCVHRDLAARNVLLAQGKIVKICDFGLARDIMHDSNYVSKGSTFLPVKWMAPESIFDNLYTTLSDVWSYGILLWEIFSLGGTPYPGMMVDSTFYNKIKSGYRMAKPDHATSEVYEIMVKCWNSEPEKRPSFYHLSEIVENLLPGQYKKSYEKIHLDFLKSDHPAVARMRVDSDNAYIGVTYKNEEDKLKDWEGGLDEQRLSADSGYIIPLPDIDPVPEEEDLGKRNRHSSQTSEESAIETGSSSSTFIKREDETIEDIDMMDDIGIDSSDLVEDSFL

| Sequence | PDGFRα(h) % activity [1] [%] | BTK(R28H)(h) % activity [2] [%] | EphB4(h) % activity [3] [%] | PAK5(h) % activity [4] [%] | PrKX(h) % activity [5] [%] | MSK2(h) % activity [6] [%] | ALK(h) % activity [7] [%] | SGK(h) % activity [8] [%] | ULK3(h) % activity [9] [%] | Fms(Y969C)(h) % activity [10] [%] |
| --- | --- | --- | --- | --- | --- | --- | --- | --- | --- | --- |
| HRRIKAWLKKIKALARQLGVAA (Mammalian) [MMI-0500] | 40 | 10 | 38 | 125 | 57 | 14 | 12 | 2 | 177 | – |
| KAFAKLAARLYRKALARQLGVAA [MMI-0400] | 40 | 24 | 28 | – | 76 | 52 | 16 | 54 | 147 | 91 |
| FAKLAARLYRKALARQLGVAA [MMI-0300] | 65 | 74 | 44 | 110 | 61 | 56 | 19 | 48 | 167 | 72 |
| YARAAARQARAKALNRQLGVA (Mammalian) [MMI-0200] | 108 | – | 131 | 100 | – | 88 | 95 | – | 164 | 88 |
